Where a chain is given by its changes, count along the chain named. Names may count otherwise.

The target in data set [1] is T1, re-constituted (composite) NIA1 (Arabidopsis thaliana, UniProt P11832).
T1 construct: both from E. coli, IMAC purified; with Nitrate reductase [NADH]
T1 sequence (P11832 1-627): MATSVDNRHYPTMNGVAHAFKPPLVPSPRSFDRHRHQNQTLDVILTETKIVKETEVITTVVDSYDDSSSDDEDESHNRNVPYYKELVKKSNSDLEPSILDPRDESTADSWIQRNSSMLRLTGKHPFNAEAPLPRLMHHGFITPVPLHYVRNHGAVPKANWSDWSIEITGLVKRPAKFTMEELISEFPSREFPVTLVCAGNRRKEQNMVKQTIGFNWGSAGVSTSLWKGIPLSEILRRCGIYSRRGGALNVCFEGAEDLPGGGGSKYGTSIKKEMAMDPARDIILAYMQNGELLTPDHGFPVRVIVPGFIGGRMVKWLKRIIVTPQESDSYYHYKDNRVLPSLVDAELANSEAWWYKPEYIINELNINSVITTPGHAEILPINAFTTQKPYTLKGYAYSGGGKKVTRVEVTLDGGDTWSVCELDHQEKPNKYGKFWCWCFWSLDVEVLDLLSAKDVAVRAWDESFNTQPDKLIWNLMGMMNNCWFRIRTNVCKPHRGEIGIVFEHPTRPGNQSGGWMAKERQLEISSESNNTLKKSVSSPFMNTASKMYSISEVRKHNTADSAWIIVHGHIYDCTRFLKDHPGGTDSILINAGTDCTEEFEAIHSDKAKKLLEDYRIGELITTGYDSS
T1 sequence (P11832 628-917 partner): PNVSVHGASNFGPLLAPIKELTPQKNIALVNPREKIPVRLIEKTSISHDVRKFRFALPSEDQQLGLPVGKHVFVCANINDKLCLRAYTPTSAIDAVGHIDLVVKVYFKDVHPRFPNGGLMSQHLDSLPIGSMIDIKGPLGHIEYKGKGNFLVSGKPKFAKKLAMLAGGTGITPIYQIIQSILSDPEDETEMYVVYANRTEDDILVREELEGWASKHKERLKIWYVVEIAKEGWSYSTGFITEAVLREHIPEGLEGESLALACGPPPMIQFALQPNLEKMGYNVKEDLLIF
The experiment in a line: NO analyzer, inhibition of nitrite reduction (NO production). The data set is classed as biochemical.

Data set [2] has as its target T2, re-constituted (composite) NIA2 (Arabidopsis thaliana, UniProt P11035).
T2 construct: both from E. coli, IMAC purified; with Nitrate reductase [NADH]
T2 sequence (P11035 1-625): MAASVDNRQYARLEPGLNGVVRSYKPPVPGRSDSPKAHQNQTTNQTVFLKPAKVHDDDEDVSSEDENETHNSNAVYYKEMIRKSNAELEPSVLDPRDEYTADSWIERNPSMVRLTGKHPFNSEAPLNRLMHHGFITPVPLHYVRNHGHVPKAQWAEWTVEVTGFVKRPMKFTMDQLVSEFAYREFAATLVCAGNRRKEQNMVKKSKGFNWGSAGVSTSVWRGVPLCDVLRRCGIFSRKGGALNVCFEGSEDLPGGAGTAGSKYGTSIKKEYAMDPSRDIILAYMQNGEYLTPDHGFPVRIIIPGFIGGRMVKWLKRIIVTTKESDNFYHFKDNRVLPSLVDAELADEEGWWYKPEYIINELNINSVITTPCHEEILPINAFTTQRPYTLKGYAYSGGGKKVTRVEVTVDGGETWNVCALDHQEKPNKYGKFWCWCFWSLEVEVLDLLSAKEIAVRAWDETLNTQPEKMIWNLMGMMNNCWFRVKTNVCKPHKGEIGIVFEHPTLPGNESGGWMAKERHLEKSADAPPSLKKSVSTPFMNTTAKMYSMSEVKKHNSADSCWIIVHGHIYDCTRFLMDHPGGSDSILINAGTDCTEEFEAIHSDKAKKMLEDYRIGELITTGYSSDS
T2 sequence (P11035 626-917 partner): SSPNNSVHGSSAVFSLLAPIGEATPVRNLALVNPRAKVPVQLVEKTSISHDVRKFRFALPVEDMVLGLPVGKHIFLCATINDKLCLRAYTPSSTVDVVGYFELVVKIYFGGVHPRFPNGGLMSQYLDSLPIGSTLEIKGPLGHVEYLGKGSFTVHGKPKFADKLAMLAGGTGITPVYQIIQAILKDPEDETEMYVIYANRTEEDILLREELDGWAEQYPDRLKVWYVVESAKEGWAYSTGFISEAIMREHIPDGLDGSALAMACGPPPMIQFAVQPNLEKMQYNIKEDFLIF
The description is as above. The data set is classed as biochemical.

Substrate in data set [3]: O=NO
In words: BV:nitrite steady-state assay, A595. The data set is classed as biochemical, Arabidopsis thaliana. The following applies: reduced benzyl viologen as electron donor, pH 7.5, 22-25 °C, anaerobic. An excerpt:
BV:nitrite steady-state assay, A595 on NIA2-Mo-heme

Substrate in data set [4]: O=NO
The experiment in a line: BV:nitrite steady-state assay, A595. It counts as biochemical, Arabidopsis thaliana. Conditions: reduced benzyl viologen as electron donor, pH 7.5, 22-25 °C, anaerobic. An excerpt: BV:nitrite steady-state assay, A595 on NIA1-Mo-heme
The source holds these as a separate data set.

The target in data set [5] is T3, Arabidopsis thaliana NIA2-Mo-heme fragment (residues 1-625) (Arabidopsis thaliana) (UniProt P11035).
T3 sequence: T2 sequence (P11035 1-625)

Data set [6] has as its target T4, Arabidopsis thaliana NIA1-Mo-heme fragment (residues 1-627) (Arabidopsis thaliana) (UniProt P11832).
T4 sequence: T1 sequence (P11832 1-627)

Substrate in data set [7]: O=NO
The experiment in a line: BV:nitrite steady-state assay, A595. The following applies: reduced benzyl viologen as electron donor, pH 7.5, 22-25 °C, anaerobic. The data set is classed as biochemical, Arabidopsis thaliana. The source says:
BV:nitrite steady-state assay, A595 on NIA1-Mo
The source holds these as a separate data set.

By IC50 is commonly meant the midpoint of a concentration-inhibition curve. High values mean lower potency, low ones higher potency. With `O=[N+]([O-])O` [nitrate], the IC50 in data set [1] came to 12 ± 1.7 µM; in data set [2], 36 ± 2.7 µM.

B1: NIA2-Mo-heme (Arabidopsis thaliana) (protein)
chain: T2 sequence (P11035 1-625)
notes: N-terminal Moco + hinge 1 + heme domain fragment, residues 1-625; E. coli TP1004, Ni-NTA and SEC purified
A word on the Km: it is the substrate concentration at which the rate is half of its maximum. As usually defined, the kcat is the maximal rate divided by the concentration of active sites. As for B1, in data set [3], the Km was 13.7 ± 3.3 µM and the kcat came out at 1.8 ± 0.3 s⁻¹.

B2: NIA2-Mo-heme (Arabidopsis thaliana; H600A) (protein)
chain: T2 sequence (P11035 1-625) with H600A
notes: as for B1
As to B2, in data set [3] (heme-coordinating His mutated), the Km is on record as 10.3 ± 1.2 µM and the kcat worked out at 1.2 ± 0.02 s⁻¹.

B3: NIA1-Mo-heme (Arabidopsis thaliana) (protein)
chain: T1 sequence (P11832 1-627)
notes: N-terminal Moco + hinge 1 + heme domain fragment, residues 1-627; pQE80L, E. coli, Ni-NTA (IMAC) and SEC purified
As to B3, in data set [4], the Km worked out at 35.5 ± 2.7 µM and the kcat is 19.8 ± 4.8 s⁻¹.

B4: Arabidopsis thaliana NIA2-FAD fragment (residues 626-917) (domain or fragment)
chain: T2 sequence (P11035 626-917 partner)
For B4, the apparent kcat of the steady-state NADH:nitrate assay of re-constituted NIA2 (100 nM NIA2-Mo-heme + 5 µM NIA2-FAD, ratio 1:50) in data set [5] is 13.4 s⁻¹.

B5: Arabidopsis thaliana NIA1-FAD fragment (residues 628-917) (domain or fragment)
chain: T1 sequence (P11832 628-917 partner)
Regarding B5, the apparent kcat of the steady-state NADH:nitrate assay of re-constituted NIA1 (100 nM NIA1-Mo-heme + 5 µM NIA1-FAD, ratio 1:50) in data set [6] turned out to be 9.6 s⁻¹.

B6: NIA1-Mo (Arabidopsis thaliana) (protein)
chain: MATSVDNRHYPTMNGVAHAFKPPLVPSPRSFDRHRHQNQTLDVILTETKIVKETEVITTVVDSYDDSSSDDEDESHNRNVPYYKELVKKSNSDLEPSILDPRDESTADSWIQRNSSMLRLTGKHPFNAEAPLPRLMHHGFITPVPLHYVRNHGAVPKANWSDWSIEITGLVKRPAKFTMEELISEFPSREFPVTLVCAGNRRKEQNMVKQTIGFNWGSAGVSTSLWKGIPLSEILRRCGIYSRRGGALNVCFEGAEDLPGGGGSKYGTSIKKEMAMDPARDIILAYMQNGELLTPDHGFPVRVIVPGFIGGRMVKWLKRIIVTPQESDSYYHYKDNRVLPSLVDAELANSEAWWYKPEYIINELNINSVITTPGHAEILPINAFTTQKPYTLKGYAYSGGGKKVTRVEVTLDGGDTWSVCELDHQEKPNKYGKFWCWCFWSLDVEVLDLLSAKDVAVRAWDESFNTQPDKLIWNLMGMMNNCWFRIRT
notes: Moco domain only, residues 1-488; His-tagged, pQE80L, E. coli TP1004
On to B6, for which, in data set [7], the Michaelis-Menten constant (Km) was 35.3 ± 3.2 µM and the kcat amounted to 138 ± 2.5 s⁻¹.
